From paper PMC8053102 come the findings set out here.

The data set has as its target T1, PcnR (plasmid copy number repressor, ProQ/FinO family) (Escherichia coli IncI2 plasmid pHNSHP45, UniProt Q9F577 1-198).
T1 sequence: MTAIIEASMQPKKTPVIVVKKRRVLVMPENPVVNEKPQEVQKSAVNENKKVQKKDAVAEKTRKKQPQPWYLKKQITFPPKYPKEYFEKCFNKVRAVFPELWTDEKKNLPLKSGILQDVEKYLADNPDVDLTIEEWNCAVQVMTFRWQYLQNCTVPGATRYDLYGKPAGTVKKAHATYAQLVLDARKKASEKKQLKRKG
In words: EMSA. On the technique in general: A gel shift assay detects complexes by their altered migration in electrophoresis.

For CUGAAGUGGAGUUUAAUUCCAUGAGAAGGAAAUAUCAACUCUUACAG (structured_RNA) [first stem-loop (SL) of repR mRNA, 47 nt], the binding result was “binds”.
